Laboratory results from article PMC9646525, “Cryo-EM structure of the SEA complex” (Nature, 2022).

Biological target: T1, Sea2 (S. cerevisiae (endogenous in yeast …, UniProt Q08281 1-1341))
T1 construct: Sea2, S. cerevisiae, endogenous subunit of the SEAC (SEACAT, core); Native protein of the purified complex; two copies in the SEAC; source: endogenous, yeast cells expressing Sea4-TAP; in lysate and co-purified with Sea4-TAP (IgG Dynabeads, TEV elution)
T1 sequence (looked up): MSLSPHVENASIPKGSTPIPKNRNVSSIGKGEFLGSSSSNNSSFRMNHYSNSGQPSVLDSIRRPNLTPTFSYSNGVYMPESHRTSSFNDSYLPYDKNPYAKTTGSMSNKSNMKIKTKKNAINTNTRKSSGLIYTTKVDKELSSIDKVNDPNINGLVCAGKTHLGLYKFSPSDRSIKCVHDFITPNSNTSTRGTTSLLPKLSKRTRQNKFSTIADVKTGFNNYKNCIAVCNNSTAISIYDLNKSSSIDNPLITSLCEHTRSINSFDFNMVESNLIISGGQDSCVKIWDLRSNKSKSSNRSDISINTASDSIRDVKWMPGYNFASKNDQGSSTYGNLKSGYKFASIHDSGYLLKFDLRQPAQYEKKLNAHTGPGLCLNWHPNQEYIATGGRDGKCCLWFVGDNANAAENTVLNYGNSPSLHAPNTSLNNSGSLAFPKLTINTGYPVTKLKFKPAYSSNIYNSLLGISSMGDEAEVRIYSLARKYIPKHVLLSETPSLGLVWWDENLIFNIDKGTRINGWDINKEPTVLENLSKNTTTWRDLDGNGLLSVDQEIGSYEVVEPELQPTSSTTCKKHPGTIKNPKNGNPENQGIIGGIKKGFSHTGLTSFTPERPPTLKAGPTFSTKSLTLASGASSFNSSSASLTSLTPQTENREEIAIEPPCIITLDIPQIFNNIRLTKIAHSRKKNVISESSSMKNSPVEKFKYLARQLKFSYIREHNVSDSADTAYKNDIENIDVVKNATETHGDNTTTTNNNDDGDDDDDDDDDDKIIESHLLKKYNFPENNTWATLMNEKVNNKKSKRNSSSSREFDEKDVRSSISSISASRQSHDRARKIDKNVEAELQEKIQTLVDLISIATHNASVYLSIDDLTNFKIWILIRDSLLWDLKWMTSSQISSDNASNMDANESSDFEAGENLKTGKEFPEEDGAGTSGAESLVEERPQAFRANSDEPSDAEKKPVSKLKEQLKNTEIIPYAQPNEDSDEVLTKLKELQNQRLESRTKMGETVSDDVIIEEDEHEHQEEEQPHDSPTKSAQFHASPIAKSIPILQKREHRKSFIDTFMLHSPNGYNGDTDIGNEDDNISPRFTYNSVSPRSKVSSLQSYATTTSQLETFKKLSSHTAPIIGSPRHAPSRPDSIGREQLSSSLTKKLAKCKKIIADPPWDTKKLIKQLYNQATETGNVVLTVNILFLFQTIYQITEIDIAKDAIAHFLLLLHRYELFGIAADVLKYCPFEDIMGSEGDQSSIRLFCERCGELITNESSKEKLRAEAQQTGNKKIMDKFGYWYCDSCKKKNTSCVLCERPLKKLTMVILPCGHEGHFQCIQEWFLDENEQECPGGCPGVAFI
Test: cryo-EM structure; endogenous SEAC purified from yeast via Sea4-TAP (IgG Dynabeads, TEV elution in 20 mM HEPES-NaOH pH 7.4, 300 mM NaCl, 2 mM DTT), on graphene-oxide-coated grids
Settings: both partners purified

B1: Seh1 (natural protein, UniProt P53011 1-349, looked up)
chain: MQPFDSGHDDLVHDVVYDFYGRHVATCSSDQHIKVFKLDKDTSNWELSDSWRAHDSSIVAIDWASPEYGRIIASASYDKTVKLWEEDPDQEECSGRRWNKLCTLNDSKGSLYSVKFAPAHLGLKLACLGNDGILRLYDALEPSDLRSWTLTSEMKVLSIPPANHLQSDFCLSWCPSRFSPEKLAVSALEQAIIYQRGKDGKLHVAAKLPGHKSLIRSISWAPSIGRWYQLIATGCKDGRIRIFKITEKLSPLASEESLTNSNMFDNSADVDMDAQGRSDSNTEEKAELQSNLQVELLSEHDDHNGEVWSVSWNLTGTILSSAGDDGKVRLWKATYSNEFKCMSVITAQQ
notes: Seh1, S. cerevisiae, endogenous subunit of the SEAC (SEACAT, core); Native protein of the purified complex; six copies in the SEAC; source: endogenous, yeast cells expressing Sea4-TAP; in lysate and co-purified with Sea4-TAP (IgG Dynabeads, TEV elution)
  binding result: binds
